# According to patent publication US20240325557A1 (INNATE PHARMA, published 2024):
# Numbering of substitutions follows the chain as printed.
# T1: huNectin4-C1C2-V5 (C1C2 construct, lacking the Ig-like V domain) (human, UniProt Q96NY8 148-510)
# T1 construct: Expressed on CHO cells; also called Hu-Nectin4 IgC1C2-V5; Nectin4-C1C2-V5 sorted cells
# T1 sequence: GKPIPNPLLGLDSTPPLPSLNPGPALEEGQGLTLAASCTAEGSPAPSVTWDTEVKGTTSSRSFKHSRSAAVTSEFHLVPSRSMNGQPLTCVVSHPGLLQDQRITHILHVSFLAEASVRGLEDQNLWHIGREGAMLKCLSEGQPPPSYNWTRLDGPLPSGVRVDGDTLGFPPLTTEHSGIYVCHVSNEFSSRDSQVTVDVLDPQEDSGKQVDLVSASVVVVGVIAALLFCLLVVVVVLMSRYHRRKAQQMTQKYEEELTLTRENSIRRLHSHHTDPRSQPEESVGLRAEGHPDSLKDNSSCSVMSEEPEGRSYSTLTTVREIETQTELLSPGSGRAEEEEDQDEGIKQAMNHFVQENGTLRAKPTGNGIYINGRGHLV
# T2: wild-type human Nectin-4 on the CHO huNectin4 Cl.3C8 cell line (human, UniProt Q96NY8 32-510)
# T2 construct: also called whole Nectin-4 protein; huNectin4 CI.3C8
# T2 sequence: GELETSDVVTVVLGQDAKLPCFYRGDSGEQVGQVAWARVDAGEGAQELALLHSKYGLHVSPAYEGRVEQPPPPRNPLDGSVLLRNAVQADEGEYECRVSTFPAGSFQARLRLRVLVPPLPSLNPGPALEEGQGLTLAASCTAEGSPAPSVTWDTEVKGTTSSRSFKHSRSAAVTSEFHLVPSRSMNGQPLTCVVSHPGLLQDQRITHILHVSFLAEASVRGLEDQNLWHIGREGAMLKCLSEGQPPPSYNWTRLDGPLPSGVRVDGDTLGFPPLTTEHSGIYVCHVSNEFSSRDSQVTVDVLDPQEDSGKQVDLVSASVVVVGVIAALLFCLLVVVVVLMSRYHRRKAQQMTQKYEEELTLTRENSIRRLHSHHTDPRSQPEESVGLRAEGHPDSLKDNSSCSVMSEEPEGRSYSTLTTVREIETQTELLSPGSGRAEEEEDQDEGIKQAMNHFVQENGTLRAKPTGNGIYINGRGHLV
# T3: Mouse Nectin-4 on CHO cells (mouse, UniProt Q8R007 32-508)
# T3 construct: also called mouse Nectin 4 protein
# T3 sequence: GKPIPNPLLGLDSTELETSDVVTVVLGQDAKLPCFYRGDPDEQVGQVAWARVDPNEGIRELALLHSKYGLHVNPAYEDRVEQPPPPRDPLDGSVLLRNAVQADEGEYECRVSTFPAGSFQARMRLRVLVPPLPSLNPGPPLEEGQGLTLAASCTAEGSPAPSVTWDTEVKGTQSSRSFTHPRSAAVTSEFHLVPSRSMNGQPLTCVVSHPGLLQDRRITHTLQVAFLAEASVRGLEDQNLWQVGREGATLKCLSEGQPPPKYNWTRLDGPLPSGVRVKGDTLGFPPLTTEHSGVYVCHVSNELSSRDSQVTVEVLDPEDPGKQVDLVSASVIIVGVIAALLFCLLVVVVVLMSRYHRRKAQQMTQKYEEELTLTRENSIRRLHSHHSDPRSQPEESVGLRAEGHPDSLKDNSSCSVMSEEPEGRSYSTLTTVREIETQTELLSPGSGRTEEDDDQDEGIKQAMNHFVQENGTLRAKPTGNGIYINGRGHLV
# T4: human Nectin-4 Mutant 7 (human, UniProt Q96NY8 32-510)
# T4 construct: Expressed on transfected HEK-293T cells; also called S195A/K197T/S199A
# T4 chain: T2 sequence with S164A, K166T, S168A
# T5: human Nectin-4 Mutant 7bis (human, UniProt Q96NY8 32-510)
# T5 construct: Expressed on transfected HEK-293T cells; also called A72P/G73N/K197T/S199A
# T5 chain: T2 sequence with A41P, G42N, K166T, S168A
# T6: monomeric huNectin4-his-BirA protein (human, UniProt Q96NY8 32-349)
# T6 construct: also called Human Nectin4-His-BirA; huNectin4-BirA
# T6 sequence: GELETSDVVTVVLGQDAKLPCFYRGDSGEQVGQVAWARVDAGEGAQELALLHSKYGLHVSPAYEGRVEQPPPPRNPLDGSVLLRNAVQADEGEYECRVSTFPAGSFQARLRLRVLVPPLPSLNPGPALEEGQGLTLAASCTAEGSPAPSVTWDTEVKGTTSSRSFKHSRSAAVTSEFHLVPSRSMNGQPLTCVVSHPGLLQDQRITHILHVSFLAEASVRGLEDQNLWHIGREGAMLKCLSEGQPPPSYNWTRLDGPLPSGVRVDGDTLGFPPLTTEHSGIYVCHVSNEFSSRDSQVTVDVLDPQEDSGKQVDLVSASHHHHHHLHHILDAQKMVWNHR
# T7: Rat Nectin-4 on CHO cells (rat, UniProt Q8R007 31-508 (mouse entry))
# T7 chain: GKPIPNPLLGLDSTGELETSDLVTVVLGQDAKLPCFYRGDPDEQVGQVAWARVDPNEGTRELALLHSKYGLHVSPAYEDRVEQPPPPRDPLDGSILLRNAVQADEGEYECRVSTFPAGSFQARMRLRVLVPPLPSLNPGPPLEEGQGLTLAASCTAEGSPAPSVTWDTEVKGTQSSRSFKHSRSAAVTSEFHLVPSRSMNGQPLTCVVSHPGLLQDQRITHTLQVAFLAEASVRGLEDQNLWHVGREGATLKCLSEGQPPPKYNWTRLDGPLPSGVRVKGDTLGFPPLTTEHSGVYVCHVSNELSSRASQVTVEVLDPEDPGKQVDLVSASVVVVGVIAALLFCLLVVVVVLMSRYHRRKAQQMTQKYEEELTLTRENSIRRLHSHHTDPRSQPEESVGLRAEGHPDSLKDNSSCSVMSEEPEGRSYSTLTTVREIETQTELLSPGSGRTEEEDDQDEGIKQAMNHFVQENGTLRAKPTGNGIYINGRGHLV
# B1: antibody 5E7 (antibody, human IgG1, V domains shown)
# VH: QVQLQQPGAELVKPGASVKLSCKASGYIFTSYWMHWVKQRPGQGLEWIGEIDPSDSYTNYNQKFKGKATLTLDKSSSTTYMQLSSLTSEDSAVYYCVRGYGNYGDYWGQGTTLTVSS
# VL: DVVMTQAAFSNPVTLGTSASISCRSSKSLLHSNGITYLYWYLQKPGQSPQLLIYQMSNLASGVPDRFSSSGSGTDFTLRISRVEAEDVGVYYCAQNLELPWTFGGGTKLEIK
# notes: Mouse variable domains; also called mAb6; Mab6
# B2: antibody 10B12 (antibody, human IgG1, V domains shown)
# VH: B1 VH with I28T, L72V, T79A
# VL: B1 VL with V2I
# notes: Mouse variable domains; also called mAb7; Mab7
# B3: Enfortumab (ASG-22ME) (antibody, V domains shown)
# VH: EVQLVESGGGLVQPGGSLRLSCAASGFTFSSYNMNWVRQAPGKGLEWVSYISSSSSTIYYADSVKGRFTISRDNAKNSLSLQMNSLRDEDTAVYYCARAYYYGMDVWGQGTTVTVSS
# VL: DIQMTQSPSSVSASVGDRVTITCRASQGISGWLAWYQQKPGKAPKFLIYAASTLQSGVPSRFSGSGSGTDFTLTISSLQPEDFATYYCQQANSFPPTFGGGTKVEIKR
# B4: mAb3 (antibody, V domains shown)
# VH: B3 VH
# VL: B3 VL
# How the values were obtained:
# [1] = target: T1, huNectin4-C1C2-V5 (C1C2 construct, …); assay: flow cytometry titration on Hu-Nectin4 IgC1C2-V5 sorted cells (row label printed IC50)
# [2] = target: T2, wild-type human Nectin-4 on the CHO …; assay: flow cytometry titration on CHO cells expressing wild-type human Nectin-4 (huNectin4), median MFI
# Experimental: The characterization of the binding of the antibodies on Nectin-4 domains was performed by flow cytometry using cells made to express the wild-type human Nectin-4 protein and cells made to express a modified Nectin-4 having the Ig-like C₂ type 1 and the Ig-like C₂ type 2 domains and lacking the Ig-like V domain (the C1C2 construct). The latter protein additionally bears a V5 tag for flow cytometry cell sorting, and cells were used as Nectin4-C1C2-V5 sorted cells.
# [3] = target: T3, Mouse Nectin-4 on CHO cells; assay: flow cytometry on CHO cells expressing mouse Nectin-4
# human Nectin-4 Mutant 7 = target: T4, human Nectin-4 Mutant 7; assay: binding to HEK-293T cells transfected with the Nectin-4 mutant
# [4] = target: T5, human Nectin-4 Mutant 7bis; assay: as above
# [5] = target: T6, monomeric huNectin4-his-BirA protein; assay: SPR (Biacore T200), antibody captured on Protein A, monomeric huNectin4-his-BirA injected
# Experimental: Antibodies were tested for binding affinity to the wild-type human Nectin-4 protein by SPR (Surface Plasmon Resonance) methods. Measurements were performed on a Biacore T200 apparatus (Biacore GE Healthcare) at 25° C. Sensorgrams were analyzed with Biacore T100 Evaluation software. A CMR Sensor Chip with immobilized Protein A at about 600 RU was used. Anti-Nectin-4 antibodies were captured onto the Protein-A chip (antibodies diluted to 1 μg/ml in HBS-EP+1× buffer and injected over 120s at 40 μL/min). […] The chip was regenerated with NaOh 10 mM 2× for 30s at 40 μl/min. The sensorgram sets were fitted using the 1:1 kinetic binding model or two state reaction model, as a function of the profile of the curves.
# [6] = target: T7, Rat Nectin-4 on CHO cells; assay: flow cytometry titration on CHO cells expressing rat Nectin-4, median MFI (PE)
Binder,EC50 [1] [µg/mL],EC50 (read off the curve) [2] [µg/mL],binding result [3],binding result (human Nectin-4 Mutant 7),binding result [4],Kd [5] [nM],koff [5] [s⁻¹],kon [5] [M⁻¹ s⁻¹],EC50 (read off the curve) [6] [µg/mL]
B1,0.0524,~0.05,no binding,no binding,no binding,4.8,0.003,620000,
B2,0.0197,~0.02,no binding,no binding,no binding,12,0.01,860000,
B3,,,,,,,,,~0.2
B4,0.156,~0.2,,,,,,,
